The target of this assay is T1, release factor RF2 (E. coli (K12 strain), UniProt P07012 1-365).
T1 sequence: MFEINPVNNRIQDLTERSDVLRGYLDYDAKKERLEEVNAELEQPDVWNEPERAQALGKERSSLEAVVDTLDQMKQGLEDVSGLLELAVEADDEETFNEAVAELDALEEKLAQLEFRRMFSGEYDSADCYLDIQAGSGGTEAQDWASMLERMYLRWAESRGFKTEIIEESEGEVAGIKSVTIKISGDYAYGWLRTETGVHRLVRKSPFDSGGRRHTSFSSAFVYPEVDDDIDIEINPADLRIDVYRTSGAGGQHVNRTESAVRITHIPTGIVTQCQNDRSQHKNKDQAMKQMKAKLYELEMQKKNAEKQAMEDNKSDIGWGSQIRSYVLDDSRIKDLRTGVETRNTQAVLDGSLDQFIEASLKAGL
Description: cryo-EM structure.

This is an account of results in article doi:10.1101/091256 (bioRxiv, 2016).

B1: ArfA (alternative rescue factor A) (natural protein, E. coli, UniProt P36675 1-60, looked up)
chain: MSRYQHTKGQIKDNAIEALLHDPLFRQRVEKNKKGKGSYMRKGKHGNRGNWEASGKKVNH
On to B1, for which the binding result was “binds”.
